Where no end group is shown, it is not given here.
Experiments:
[1] = Oscillatory rheology of peptide hydrogels (storage and loss moduli); assay type: physicochemical
Excerpt: (gel storage modulus of ˜600 Pa). Gel formation continued to mature after two hours with a doubling of the gel modulus to ~1200 Pa. An equilibrium storage modulus of ~1600 Pa was reached after several hours of gel formation. This equilibrium behavior is clearly shown by the linear, frequency independent moduli measurements in FIG. 6B. For comparison, the storage modulus of strawberry gelatin is ˜50 Pa (data not shown).
In FIG. 6D, a time sweep experiment identical to that performed during the original gel formation was run immediately after the application of 1000% strain at 6 Hz for 180 seconds. The initial modulus of the reforming gel was 650 Pa with 80% of the equilibrium modulus recovered after only 30 minutes making this a quick recovering and relatively strong hydrogel. For comparison, a 2 wt % gelatin hydrogel takes over 4 h to recover 80% of its equilibrium modulus after shear thinning.
Rheology: Dynamic time and frequency sweep experiments were performed in a strain controlled Rheometrics ARES rheometer with 25.0 mm diameter parallel plate geometry and 0.5 mm gap distance. Lyophilized peptide was dissolved in de-ionized water and buffer or cell growth media solution at 10° C. in order to suppress folding and gelation before the sample is loaded into the rheometer. After the sample was loaded, temperature was increased to either 20° C. or 37° C. Standard low viscosity mineral oil was used to insulate the sides of the plate in order to suppress evaporation. […] Strain sweep experiments were performed to determine the linear viscoelastic regime in which all rheological experiments were performed. Dynamic time sweep experiments were performed with a frequency and strain of 6 rad/s and 1%, respectively. Frequency sweep experiments were performed with a frequency and strain of 0.1-100 rad/s and 5%, respectively.

[2] = Hydrogelation by folding and self-assembly; assay type: physicochemical; details: pH 9, heating/cooling cycles
Procedure: The ability of MAX1 to undergo hydrogelation is dependent upon its unimolecular folded state. Under basic aqueous solution conditions (pH 9.0, 125 mM Borate, 10 mM NaCl), where some of the lysine side chains of MAX1 are neutral, this peptide intramolecularly folds into an amphiphilic β-hairpin (folding can also be triggered at pH 7 under physiological conditions). One face of the hairpin is lined with hydrophobic valine residues while the other face is lined with hydrophilic lysine residues, FIGS. 2 and 3A. After intramolecular folding, subsequent self-assembly of hairpins is facilitated (a) laterally via H-bond formation and attractive hydrophobic interactions between distinct hairpins as well as (b) facially by hydrophobic association of the valine-rich faces of the folded peptide resulting in hydrogelation, FIG. 3B. Since the charged state of the lysine residues are controlled by pH, the unimolecular folding is reversible. Lowering the pH below the intrinsic pKa of the lysine side chains results in intra-strand charge repulsion from neighboring lysines and subsequent unfolding of individual hairpins, ultimately dissolving the self-assembled hydrogel structure. This reversible behavior is unique when compared to β-sheet-rich hydrogels prepared from classical fibril-based designs. In these systems, the self-assembly process is irreversible.
There are reports of large polymers that are thermally responsive. The present invention provides the first system that employs temperature triggered folding to induce self-assembly. […] Heating the solution to 80° C. results in a spectra consistent with β-sheet structure. […] The temperatures used in both CD and rheology bracket the temperature (Tgel=60° C., FIG. 9) at which folding and consequent self-assembly is triggered. […] For example, free flowing peptide solutions could be prepared at room temperature and administered in vivo where the temperature of the body could induce gelation. Some Poly-N-isopropylacrylamide polymers have been engineered have been engineered to undergo such transitions ultimately affording extracellular-like scaffolds for tissue regeneration. The above studies support the idea that the formation of hydrophobic interactions are important. MAX1-3 all contain valines and threonines at hydrogen bonded positions. At these positions, their side chains prefer to adopt a trans rotamer. As a result, hydrophobic residues that oppose each other across the hairpin point their side chains in opposite directions thus making the formation of intramolecular hydrophobic interactions across the strands difficult, FIG. 11A. However, these side chains are nicely positioned to interact laterally with the hydrophobic side chains of neighboring hairpins in the self-assembled state, FIG. 11B. Forming these lateral hydrophobic interactions should favor self-assembly. […] In MAX4, opposing valine side chains are expected to point towards each other, FIG. 11B. Thus, the valine side chains of MAX4 are less likely than those in MAX1 to form lateral intermolecular hydrophobic interactions. If the formation of lateral intermolecular hydrophobic interactions is of more importance for self-assembly than intramolecular hydrophobic contacts, then the rate of self-assembly should be faster for MAX1 than for MAX4. This difference in rate should be evident in the rate of storage moduli (rigidity) increase. […] (Tgel=20° C. for both peptides). […]

[3] = 2 wt %, pH 7.4, 20 mM NaCl, 20° C
[4] = 2 wt %, pH 9, 1000% strain at 6 Hz for 180 s (FIG. 6D legend)
[5] = 2 wt %, serum free DMEM cell growth media, 37° C

**Q.** For “VKVKVKVK V^DPPT KVKVKVKV-NH2 (not fully specified (C-terminus)) [MAX1]”, which “rate of self-assembly leading to a rheological response, compared to MAX4” value ([1]; 1 wt % preparations, 40° C, pH 9.0, 125 mM Borate, 10 mM NaCl) is on record?
**A.** faster

**Q.** And the “G′ values (frequency sweep)” value ([1]; 2 wt %, cell growth media, 37° C)?
**A.** ~2500 Pa

**Q.** And the “G′ recovered instantaneously after cessation of shear, of initial value” ([1]; 2 wt %, cell growth media, 37° C, after 1000% strain at 6 rad/s)?
**A.** ~50%

**Q.** What about the “hydrogel rigidity (storage modulus)” value ([1]; 2 wt %, pH 7, NaCl final concentration 150 mM, data not shown) of the same sequence?
**A.** 3000 Pa

**Q.** And the “G′ during lag time” value [1, 3]?
**A.** 2-3 Pa

**Q.** And the “lag time before G′ increases” value [1, 3]?
**A.** 3000 s

**Q.** What about the “storage modulus (G′)” value ([1]; 2 wt %, pH 7.4, 20 mM NaCl, 20° C, after 2.5 hr gelation) of the same sequence?
**A.** ~100 Pa

**Q.** What about the “lag time before G′ increases” value ([1]; 2 wt %, pH 7.4, 150 mM NaCl, 20° C) of the same sequence?
**A.** ~1000 s

**Q.** What about the “time of gelation to a material of useful rigidity” value ([1]; 2 wt %, pH 7.4, 150 mM NaCl, 37° C) of the same sequence?
**A.** about 10 minutes

**Q.** What about the “G′ value (frequency sweep)” value ([1]; 2 wt %, pH 7.4, 150 mM NaCl, 37° C, after 2.5 hours gelation) of the same sequence?
**A.** around 2000 Pa

**Q.** And the “lag time before G′ increases” value ([1]; 2 wt %, pH 7.4, 400 mM NaCl, 20° C)?
**A.** does not exist

**Q.** What about the “equilibrium storage modulus (G′)” value ([1]; 2 wt %, pH 7.4, 400 mM NaCl, 20° C, after 2.5 hr gelation) of the same sequence?
**A.** ~3000 Pa

**Q.** And the “former rigidity regained immediately after large strain” value [1, 4]?
**A.** ~75%

**Q.** What about the “time to regain prestrain rigidity” value [1, 4] of the same sequence?
**A.** 10 to 20 min

**Q.** What about the “equilibrium modulus recovered after 30 minutes” value ([1]; 2 wt %, pH 9, after 1000% strain at 6 Hz for 180 seconds) of the same sequence?
**A.** 80%

**Q.** And the “initial modulus of the reforming gel” value ([1]; 2 wt %, pH 9, immediately after 1000% strain at 6 Hz for 180 seconds)?
**A.** 650 Pa

**Q.** What about the “storage moduli (rigidity) of gels prepared by protocol 1” value ([1]; 2 wt %, pH 9 borate buffer trigger, then bathed in DMEM with 10% calf serum) of the same sequence?
**A.** about 1600 Pa

**Q.** And the “G′ at the end of 2 hours of gelation” value [1, 5]?
**A.** 2300 Pa

**Q.** And the “G″ at the end of 2 hours of gelation” value [1, 5]?
**A.** 50 Pa

**Q.** What about the “G′ values” ([1]; pH 7.4 without added NaCl, after 3 hours, no gelation) of the same sequence?
**A.** approximately 1 Pa

**Q.** And the “crossover concentration separating liquid-like (G″>G′) and gel-like (G′>G″) response” value ([1]; pH 9)?
**A.** about 1 wt %

**Q.** And the “reversibility of thermally induced hydrogelation” value [2]?
**A.** not reversible
